Data reported in patent EP1888114B1.

Tests used:
[1] = biological target: T1, human MCP-2 (human), P80075; assay: 125I-MCP-2 binding to CCR2 on THP-1 cells, radio-ligand competition
T1 chain: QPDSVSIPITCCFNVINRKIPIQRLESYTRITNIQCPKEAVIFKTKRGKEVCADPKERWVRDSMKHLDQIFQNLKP

[2] = biological target: T2, human monocyte chemoattractant protein-1 (MCP-1) (human), P13500; assay: 125I-MCP-1 binding to THP-1 cells, radio-ligand competition
[3] = biological target: T2, human monocyte chemoattractant …; assay: cell-based or functional assay
[4] = biological target: T2, human monocyte chemoattractant …; assay: SET, BioVeris, Fab, rh MCP-1
[5] = biological target: T2, human monocyte chemoattractant …; assay: SET, IGEN (BioVeris)
[6] = biological target: cynomolgus monkey MCP-1 (cynomolgus monkey), P61274; assay: SET, BioVeris, cyno MCP-1
[7] = biological target: cynomolgus monkey MCP-1 (cynomolgus monkey), P61274; assay: SET, BioVeris, IgG1, cyno MCP-1
[8] = biological target: T2, human monocyte chemoattractant …; assay: SET, BioVeris, IgG1, rh MCP-1

T2 sequence (P13500 other isoform, or with tags, fused parts or gaps, form in doubt): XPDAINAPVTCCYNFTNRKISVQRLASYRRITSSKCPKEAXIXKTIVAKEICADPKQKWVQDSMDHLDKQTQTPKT
Chain of cynomolgus monkey MCP-1 (cynomolgus monkey), P61274 (P61274 24-99 limits assumed): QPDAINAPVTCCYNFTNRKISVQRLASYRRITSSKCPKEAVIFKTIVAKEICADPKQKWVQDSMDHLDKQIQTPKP

B1: MOR03754 Fab (Fab)
chain 1: QVQLVESGGGLVQPGGSLRLSCAASGFTFRSYGMSWVRQAPGKGLEWVSSIEHKWSGYATTYAASVKGRFTISRDNSKNTLYLQMNSLRAEDTAVYYCARFEFTPWTYFDFWGQGTLVTVSS
chain 2: DIELTQPPSVSVAPGQTARISCSGDNLGKKYVYWYQQKPGQAPVLVIYDDDNRPSGIPERFSGSNSGNTATLTISGTQAEDEADYYCQSYTAQSSASFGGGTKLTVL
modifications: not checked
Q: B1 was tested. Which IC50 [1] did it give?
A: Its IC50 is greater than 2000 nM.

B2: MOR03790 Fab (Fab, V domains shown)
VH: QVELVQSGAEVKKPGSSVKVSCKASGGTFSSYGISWVRQAPGQGLEWMGGIIPIFGTANYAQKFQGRVTITADESTSTAYMELSSLRSEDTAVYYCARYDGIYGELDFWGQGTLVTVSS
VL: not shown
Q: Which results are given for B2?
A: IC50 [2]: 0.26 nM; Inhibition of Ca2+ Mobilization IC50 [3]: 25 nM; Kd [4]: 0.12 nM; Kd [5]: 0.12 nM

B3: MOR03850 IgG1 (antibody)
chain 1: QVELVQSGAEVKKPGSSVKVSCKASGGTFSSYGISWVRQAPGQGLEWMGAINPLAGHTHYAQKFQGRVTITADESTSTAYMELSSLRSEDTAVYYCARYDGIYGELDFWGQGTLVTVSS
chain 2: not shown
modifications: not checked
Q: B3 was tested. Which IC50 [2] did it give?
A: Its IC50 is 0.05 nM.

Q: And the Kd [6]?
A: The Kd was 0.01 nM.

Q: What about the Inhibition of Ca2+ Mobilization IC50 [3] of the same binder?
A: Its Inhibition of Ca2+ Mobilization IC50 is 9.47 nM.

Q: What about the Kd [7] of the same binder?
A: The Kd was 0.021 nM.

Q: What about the Kd [5] of the same binder?
A: Its Kd is 0.01 nM.

Q: What about the Kd [8] of the same binder?
A: Its Kd is 0.011 nM.

B4: MOR03781 Fab (Fab, V domains shown)
VH: QVELVQSGAEVKKPGSSVKVSCKASGGTFSSYGISWVRQAPGQGLEWMGGIIPIFGTANYAQKFQGRVTITADESTSTAYMELSSLRSEDTAVYYCARYDGIYGELDFWGQGTLVTVSS
VL: not shown
Q: Which results are given for B4?
A: IC50 [2]: 0.18 nM; Inhibition of Ca2+ Mobilization IC50 [3]: 21.8 nM; Kd [4]: 0.03 nM; Kd [5]: 0.03 nM

B5: MOR03850 Fab (Fab, V domains shown)
VH: QVELVQSGAEVKKPGSSVKVSCKASGGTFSSYGISWVRQAPGQGLEWMGAINPLAGHTHYAQKFQGRVTITADESTSTAYMELSSLRSEDTAVYYCARYDGIYGELDFWGQGTLVTVSS
VL: not shown
Q: For B5, which IC50 [2] is on record?
A: Its IC50 is 0.16 nM.

Q: What about the Inhibition of Ca2+ Mobilization IC50 [3] of the same binder?
A: The Inhibition of Ca2+ Mobilization IC50 was 28.4 nM.

Q: What about the Kd [4] of the same binder?
A: The Kd was 0.04 nM.

Q: What about the Kd [5] of the same binder?
A: Its Kd is 0.04 nM.

B6: MOR03790 IgG1 (antibody, V domains shown)
VH: QVELVQSGAEVKKPGSSVKVSCKASGGTFSSYGISWVRQAPGQGLEWMGGIIPIFGTANYAQKFQGRVTITADESTSTAYMELSSLRSEDTAVYYCARYDGIYGELDFWGQGTLVTVSS
VL: not shown
Q: Which results are given for B6?
A: IC50 [2]: 0.03 nM; Inhibition of Ca2+ Mobilization IC50 [3]: 4.26 nM; Kd [5]: 0.07 nM; Kd [8]: 0.07 nM

B7: MOR03781 IgG1 (antibody, V domains shown)
VH: QVELVQSGAEVKKPGSSVKVSCKASGGTFSSYGISWVRQAPGQGLEWMGGIIPIFGTANYAQKFQGRVTITADESTSTAYMELSSLRSEDTAVYYCARYDGIYGELDFWGQGTLVTVSS
VL: not shown
Q: How did the IC50 [2] turn out when B7 was run?
A: The IC50 was 0.02 nM.

Q: And the Inhibition of Ca2+ Mobilization IC50 [3]?
A: The Inhibition of Ca2+ Mobilization IC50 was 10.9 nM.

Q: And the Kd [5]?
A: Its Kd is 0.02 nM.

Q: And the Kd [8]?
A: The Kd was 0.02 nM.
